Laboratory results: patent publication US20250109215A1 (Xencor, published 2025)
Where a chain is given by its changes, count along the chain named. Each block holds one binder with its values, some of them ahead of it.

Legend:
CD123 on KG-1a cells = CD123 on KG-1a cells (human, UniProt P26951 19-378); experiment: cell-based or functional assay
CD3 [1] = target: T1, CD3 (Homo sapiens (Human), UniProt P07766 23-126; P04234 22-105); experiment: Biacore
T1 construct: not shown: The Fc carrier of the Sino Biological CD3 delta-epsilon-Fc heterodimer; copies: 1 + 1
T1 sequence (P07766 23-126 limits assumed, chain 1 of 2): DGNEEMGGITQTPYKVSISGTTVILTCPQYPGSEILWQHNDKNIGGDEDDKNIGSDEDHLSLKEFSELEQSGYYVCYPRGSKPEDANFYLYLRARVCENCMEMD
T1 sequence (P04234 22-105 limits assumed, chain 2 of 2): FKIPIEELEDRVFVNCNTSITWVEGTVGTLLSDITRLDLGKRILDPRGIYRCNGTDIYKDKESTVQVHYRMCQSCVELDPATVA

CD3 [2] = target: T1, CD3; experiment: Biacore; column head 'KD (nM)*', anti-CD3 scFv-Fc H1.30_L1.47
CD3 [3] = target: T1, CD3; experiment: Biacore; column head 'KD (nM)*', anti-CD3 scFv-Fc H1.31_L1.47

RTCC % of KG-1a cells: EC50 (read off the curve) (CD123 on KG-1a cells): ~0.8 ng/mL
B1: 13928B (bispecific antibody)
Heavy Chain 1 (Anti-CD123 Fab-Fc (7G3_H0)): EVQLQQSGPELVKPGASVKMSCKASGYTFTDYYMKWVKQSHGKSLEWIGDIIPSNGATFYNQKFKGKATLTVDRSSSTAYMHLNSLTSEDSAVYYCTRSHLLRASWFAYWGQGTLVTVSAASTKGPSVFPLAPSSKSTSGGTAALGCLVKDYFPEPVTVSWNSGALTSGVHTFPAVLQSSGLYSLSSVVTVPSSSLGTQTYICNVNHKPSDTKVDKKVEPKSCDKTHTCPPCPAPPVAGPSVFLFPPKPKDTLMISRTPEVTCVVVDVKHEDPEVKFNWYVDGVEVHNAKTKPREEEYNSTYRVVSVLTVLHQDWLNGKEYKCKVSNKALPAPIEKTISKAKGQPREPQVYTLPPSREEMTKNQVSLTCDVSGFYPSDIAVEWESDGQPENNYKTTPPVLDSDGSFFLYSKLTVDKSRWEQGDVFSCSVMHEALHNHYTQKSLSLSPGK
Heavy Chain 2 (Anti-CD3 scFv-Fc (aCD3_H1.30_L1.47)): not shown
Light Chain (Anti-CD123 LC (7G3_L0)): DFVMTQSPSSLTVTAGEKVTMSCKSSQSLLNSGNQKNYLTWYLQKPGQPPKLLIYWASTRESGVPDRFTGSGSGTDFTLTISSVQAEDLAVYYCQNDYSYPYTFGGGTKLEIKRTVAAPSVFIFPPSDEQLKSGTASVVCLLNNFYPREAKVQWKVDNALQSGNSQESVTEQDSKDSTYSLSSTLTLSKADYEKHKVYACEVTHQGLSSPVTKSFNRGEC

Fold Decrease in CD3 binding from H1.30_L1.47 (CD3 [1]): 1 fold
Kd (CD3 [2]): 4.91 nM
B2: XENP13243 (bispecific antibody)
heavy: EVQLVESGGGLVQPGGSLRLSCAASGFDFSRSWMNWVRQAPGKGLEWVSEINPDSSTINYATSVKGRFTISRDNSKNTLYLQMNSLRAEDTAVYYCARYGNWFPYWGQGTLVTVSSASTKGPSVFPLAPSSKSTSGGTAALGCLVKDYFPEPVTVSWNSGALTSGVHTFPAVLQSSGLYSLSSVVTVPSSSLGTQTYICNVNHKPSDTKVDKKVEPKSCDKTHTCPPCPAPPVAGPSVFLFPPKPKDTLMISRTPEVTCVVVDVKHEDPEVKFNWYVDGVEVHNAKTKPREEEYNSTYRVVSVLTVLHQDWLNGKEYKCKVSNKALPAPIEKTISKAKGQPREPQVYTLPPSREEMTKNQVSLTCDVSGFYPSDIAVEWESDGQPENNYKTTPPVLDSDGSFFLYSKLTVDKSRWEQGDVFSCSVMHEALHNHYTQKSLSLSPGK
scFv-Fc: not shown
light: DIVMTQSPSSLSASVGDRVTITCRASQNVDTNVAWYQQKPGQSPKALIYSASYRYSGVPDRFTGSGSGTDFTLTISSLQPEDFATYFCQQYDSYPLTFGGGTKLEIKRTVAAPSVFIFPPSDEQLKSGTASVVCLLNNFYPREAKVQWKVDNALQSGNSQESVTEQDSKDSTYSLSSTLTLSKADYEKHKVYACEVTHQGLSSPVTKSFNRGEC
notes: anti-CD38 x anti-CD3; copies: 1 + 1 + 1

Fold Decrease in CD3 binding from H1.30_L1.47 (CD3 [1]): 330 fold
Kd (CD3 [3]): 1640 nM
B3: XmAb14702 (bispecific antibody)
heavy: B2 heavy with D28T, R31Y, D54Q
scFv-Fc: not shown
light: B2 light with N32W
